According to the supplement of paper PMC6757056:
± gives the standard deviation of the averaged measurements.

B1: library; a variant is named by its letters at N, in order (parent)
chain: GCUGUCACCGGUGCUUGGUACGUUAUAUUCAGCCGGUCUGAUGAGUCUNNNNNNAGACGAAACAGC

Legend:
(6R,S)-folinic acid [1] = variants of: B1; assay: FACS-Seq fitted mean relative fluorescence mCherry/BFP without ligand (log10 relative fluorescence); HEK293T overexpressing SLC46A1; higher = higher reporter protein expression; details: without (6R,S)-folinic acid; ligand present: no
How it was run: (§1)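 HEK293T libraries were made by lentiviral transduction with a ribozyme-switch mCherry reporter and an EF1α-BFP marker, enriched, and incubated with or without ligand for 48 h. Cells were sorted into 6 mCherry/BFP bins, and each bin's genomic DNA was PCR-amplified, barcoded and run on MiSeq. Fluorescence was derived by normal fitting of the bin counts. The fitted log10(mCherry/BFP) mean was scaled to five spiked-in control ribozymes.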

(6R,S)-folinic acid [2] = variants of: B1; assay: normalized RNA/DNA level without ligand (relative to sTRSVctl = 100) (log10 (% of sTRSVctl)); HEK293T overexpressing SLC46A1; higher = less ribozyme self-cleavage, higher mRNA level; details: without (6R,S)-folinic acid; ligand present: no
How it was run: (§2)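 For each 6-well well, 4 µg of library plasmid encoding mCherry-linked ribozyme switches, or eGFP-linked ones in some ligand experiments, was transfected into HEK293T. Any ligand was added 1 h before transfection, and RNA was extracted with EDTA 72 h after it, then reverse-transcribed, amplified, barcoded and sequenced. RNA level was obtained by dividing RNA reads by DNA reads, normalizing to a spiked-in non-cleaving sequence or to the top sequences, then scaling and log-transforming. The top set was 25 sequences, scaling was ×100 with log10, and ≥100 DNA reads were required.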

(6R,S)-folinic acid [3] = variants of: B1; assay: FACS-Seq fitted mean relative fluorescence mCherry/BFP with ligand (log10 relative fluorescence); HEK293T overexpressing SLC46A1; ligand concentration (+) FACS-Seq: 6 mM; higher = higher reporter protein expression; details: with (6R,S)-folinic acid; ligand present: yes
How it was run: as §1

(6R,S)-folinic acid [4] = variants of: B1; assay: normalized RNA/DNA level with ligand (relative to sTRSVctl = 100) (log10 (% of sTRSVctl)); HEK293T overexpressing SLC46A1; ligand concentration (+) RNA-Seq: 6 mM; higher = less ribozyme self-cleavage, higher mRNA level; details: with (6R,S)-folinic acid; ligand present: yes
How it was run: as §2

Variant | FACS-Seq fitted mean (log10) ((6R,S)-folinic acid [1]) | normalized RNA/DNA level without ligand (log10) ((6R,S)-folinic acid [2]) | FACS-Seq fitted mean (log10) ((6R,S)-folinic acid [3]) | normalized RNA/DNA level with ligand (log10) ((6R,S)-folinic acid [4])
UGAUGG | 0.038 ± 0.0089 | 1.625 ± 0.0082 | 0.583 ± 0.093 | 1.91 ± 0.038
UGAUGU | 0.318 ± 0.071 | 1.93 ± 0.021 | 0.125 ± 0.22 | 2.02 ± 0.044
UGAUGA | 0.447 ± 0.11 | 1.865 ± 0.0033 | 0.525 ± 0.05 | 2.01 ± 0.047
GGCACC | 0.275 ± 0.084 | 2.018 ± 0.0066 | -0.0119 ± 0.33 | 2.017 ± 0.0025
GGCACU | -0.00197 ± 0.025 | 2.08 ± 0.04 | -0.0531 ± 0.17 | 2.02 ± 0.036
UGGUAA | 0.244 ± 0.12 | 1.878 ± 0.01 | 0.0329 ± 0.18 | 1.95 ± 0.02
UGGUAC | -0.0637 ± 0.16 | 1.994 ± 0.013 | -0.0596 ± 0.18 | 1.99 ± 0.039
CGGAAU | 0.329 ± 0.016 | 1.97 ± 0.022 | 0.208 ± 0.2 | 2.02 ± 0.034
UGAUCG | 0.0489 ± 0.16 | 1.84 ± 0.021 | 0.0432 ± 0.082 | 1.992 ± 0.016
CGCUUU | -0.0215 ± 0.022 | 2.017 ± 0.0068 | 0.0431 ± 0.039 | 2 ± 0.063
UGAGGA | 0.309 ± 0.047 | 1.839 ± 0.0062 | 0.598 ± 0.2 | 1.99 ± 0.031
UGAGGG | 0.114 ± 0.058 | 1.657 ± 0.016 | 0.587 ± 0.016 | 1.95 ± 0.063
UGCUAG | 0.312 ± 0.12 | 1.76 ± 0.028 | 0.441 ± 0.057 | 1.972 ± 0.014
UGCUAA | 0.427 ± 0.062 | 1.97 ± 0.026 | 0.537 ± 0.11 | 2.018 ± 0.016
AGCCUG | 0.71 ± 0.23 | 2.01 ± 0.027 | 0.405 ± 0.12 | 2.05 ± 0.051
AGCCUA | 0.465 ± 0.015 | 2.021 ± 0.012 | 0.612 ± 0.31 | 2.01 ± 0.021
GGGAUG | 0.385 ± 0.017 | 1.974 ± 0.017 | 0.354 ± 0.025 | 2.04 ± 0.028
GGGAGC | 0.342 ± 0.098 | 1.831 ± 0.0028 | 0.435 ± 0.029 | 1.96 ± 0.029
GGGAGG | 0.108 ± 0.032 | 2.014 ± 0.004 | 0.269 ± 0.081 | 2.04 ± 0.032
GGGAGU | 0.46 ± 0.087 | 1.975 ± 0.0027 | 0.487 ± 0.054 | 2 ± 0.038
UGGAGU | 0.504 ± 0.12 | 1.894 ± 0.0062 | 0.658 ± 0.037 | 1.99 ± 0.035
UGGAGG | 0.042 ± 0.039 | 1.641 ± 0.0022 | 0.458 ± 0.14 | 1.96 ± 0.031
UGGAGA | 0.189 ± 0.11 | 1.83 ± 0.026 | 0.388 ± 0.12 | 2.01 ± 0.044
UGGGCG | 0.142 ± 0.034 | 1.787 ± 0.014 | 0.637 ± 0.097 | 2.009 ± 0.0047

Variant | FACS-Seq fitted mean (log10) ((6R,S)-folinic acid [1]) | normalized RNA/DNA level without ligand (log10) ((6R,S)-folinic acid [2]) | FACS-Seq fitted mean (log10) ((6R,S)-folinic acid [3]) | normalized RNA/DNA level with ligand (log10) ((6R,S)-folinic acid [4])
UGGGCC | 0.229 ± 0.0089 | 2.048 ± 0.012 | 0.157 ± 0.022 | 2.03 ± 0.0098
UGCAAA | 0.549 ± 0.013 | 1.957 ± 0.0057 | 0.532 ± 0.037 | 1.98 ± 0.034
UGCAAU | 0.173 ± 0.069 | 1.841 ± 0.0071 | 0.456 ± 0.15 | 1.973 ± 0.016
AGGAAU | 0.338 ± 0.1 | 1.988 ± 0.016 | 0.0683 ± 0.36 | 2 ± 0.029
AGGAAC | 0.484 ± 0.041 | 2 ± 0.012 | 0.434 ± 0.11 | 2.018 ± 0.02
AGGCUC | 0.131 ± 0.13 | 2.06 ± 0.041 | -0.123 ± 0.11 | 2.01 ± 0.067
AGGCUA | 0.50616 ± 0.00017 | 2.041 ± 0.0053 | 0.407 ± 0.33 | 2.06 ± 0.037
GGCGAC | 0.216 ± 0.01 | 1.998 ± 0.003 | 0.128 ± 0.013 | 1.989 ± 0.0031
GGCGAU | 0.444 ± 0.0094 | 2.07 ± 0.027 | 0.55 ± 0.15 | 2.037 ± 0.015
UGAUAA | 0.48 ± 0.24 | 1.926 ± 0.019 | 0.632 ± 0.35 | 2.004 ± 0.017
UGAUAC | 0.272 ± 0.049 | 1.984 ± 0.019 | 0.128 ± 0.094 | 2 ± 0.044
UGCUCG | 0.493 ± 0.023 | 1.84 ± 0.06 | 0.49 ± 0.049 | 1.96 ± 0.072
UGCUCU | 0.473 ± 0.12 | 2.056 ± 0.014 | 0.2 ± 0.019 | 2.06 ± 0.029
AGGCAC | 0.308 ± 0.083 | 2.0376 ± 0.0006 | 0.298 ± 0.11 | 2.02 ± 0.018
AGGCAA | 0.293 ± 0.14 | 1.994 ± 0.016 | 0.205 ± 0.1 | 1.994 ± 0.019
AGGCAU | 0.532 ± 0.008 | 1.982 ± 0.0087 | 0.603 ± 0.48 | 2.02 ± 0.026
CGGGAC | -0.0861 ± 0.029 | 2.015 ± 0.0095 | -0.418 ± 0.079 | 2.02 ± 0.032
CGGGAA | 0.288 ± 0.27 | 1.98 ± 0.024 | 0.519 ± 0.063 | 2.02 ± 0.046
CGGGAU | 0.211 ± 0.017 | 1.97 ± 0.029 | 0.0466 ± 0.17 | 2 ± 0.049
UGCGAC | 0.375 ± 0.053 | 1.979 ± 0.018 | 0.26 ± 0.29 | 2.02 ± 0.034
UGCGAG | 0.31 ± 0.21 | 1.71 ± 0.027 | -0.231 ± 0.053 | 1.96 ± 0.058
UGCGAU | 0.213 ± 0.026 | 1.85 ± 0.019 | -0.0289 ± 0.033 | 1.98 ± 0.029
GGAGCC | 0.129 ± 0.011 | 2.0238 ± 0.0014 | 0.0129 ± 0.069 | 2.026 ± 0.02
AGAGCU | 0.596 ± 0.05 | 2.019 ± 0.006 | 0.275 ± 0.32 | 2.01 ± 0.029

Variant | FACS-Seq fitted mean (log10) ((6R,S)-folinic acid [1]) | normalized RNA/DNA level without ligand (log10) ((6R,S)-folinic acid [2]) | FACS-Seq fitted mean (log10) ((6R,S)-folinic acid [3]) | normalized RNA/DNA level with ligand (log10) ((6R,S)-folinic acid [4])
UGCGUG | -0.00857 ± 0.093 | 1.6768 ± 0.0013 | 0.36 ± 0.1 | 1.95 ± 0.045
GGAUUU | 0.647 ± 0.23 | 2.02 ± 0.034 | 0.596 ± 0.19 | 2.01 ± 0.048
GGAUUC | 0.835 ± 0.03 | 2.045 ± 0.0076 | 0.746 ± 0.041 | 2.021 ± 0.016
AGCACU | 0.282 ± 0.032 | 2.02 ± 0.025 | 0.113 ± 0.16 | 2 ± 0.028
CGCAGC | 0.491 ± 0.09 | 2.01 ± 0.033 | 0.645 ± 0.4 | 2.01 ± 0.031
CGCAAC | 0.453 ± 0.13 | 2.027 ± 0.0066 | 0.417 ± 0.14 | 1.99 ± 0.013
UGAGCG | 0.157 ± 0.15 | 1.736 ± 0.012 | 0.218 ± 0.39 | 1.98 ± 0.024
UGAGCU | 0.387 ± 0.081 | 2 ± 0.013 | 0.479 ± 0.087 | 2.019 ± 0.012
AGAUGG | 0.589 ± 0.0066 | 1.91 ± 0.0092 | 0.62 ± 0.25 | 2.02 ± 0.028
AGAUGA | 0.308 ± 0.011 | 1.9723 ± 0.0012 | 0.112 ± 0.046 | 2.02 ± 0.038
GGAGGC | -0.315 ± 0.075 | 1.936 ± 0.0065 | -0.531 ± 0.17 | 2.0118 ± 0.0015
GGAGGU | 0.445 ± 0.085 | 2.02 ± 0.033 | 0.592 ± 0.05 | 2.05 ± 0.07
GGACGU | 0.583 ± 0.13 | 1.955 ± 0.015 | 0.529 ± 0.32 | 1.95 ± 0.024
CGGAUG | 0.00208 ± 0.054 | 2 ± 0.024 | -0.0609 ± 0.15 | 2.02 ± 0.043
CGGAUA | 0.0197 ± 0.04 | 1.9689 ± 0.0014 | -0.118 ± 0.034 | 1.98 ± 0.061
UGAGAG | 0.384 ± 0.054 | 1.689 ± 0.012 | 0.526 ± 0.022 | 1.92 ± 0.02
UGAGAA | 0.5 ± 0.038 | 1.917 ± 0.011 | 0.533 ± 0.26 | 1.98 ± 0.026
UGAGAU | 0.457 ± 0.23 | 1.83 ± 0.043 | 0.572 ± 0.015 | 1.98 ± 0.041
UGCGGG | -0.0146 ± 0.0024 | 1.788 ± 0.011 | 0.675 ± 0.21 | 1.99 ± 0.043
UGCCUG | 0.68 ± 0.017 | 1.875 ± 0.016 | 0.78 ± 0.085 | 2.02 ± 0.021
GGGGAA | 0.571 ± 0.12 | 1.996 ± 0.0088 | 0.428 ± 0.4 | 2.06 ± 0.034
AGGGAG | 0.271 ± 0.18 | 1.8747 ± 0.0018 | 0.349 ± 0.099 | 1.99 ± 0.046
AGGGAC | -0.124 ± 0.15 | 1.972 ± 0.011 | 0.0745 ± 0.15 | 1.994 ± 0.01
